Test results from paper PMC4663267, “A Novel C-Terminal Domain of RecJ is Critical for Interaction with HerA in Deinococcus radiodurans”.

Assays:
DrRecJ;DrHerA = target: T1, DrRecJ;DrHerA (Deinococcus radiodurans;Deinococcus …, UniProt D0EM60;Q9RW32 1-705;1-618, |); experiment: EMSA; HerA hexamer:RecJ 8:1; super-shift, RecJ binding enhanced; EMSA: 100 nM DNA, 80 mM NaCl, 20 mM Tris-HCl pH 7.5, 1 mM DTT, 30 C, 10 min, 5% TBE native PAGE; conditions: protein: recombinant;recombinant; tags: HMT (His6-MBP) tag removed by TEV;N-terminal His6; copies: 1;6; label: 5' FAM; single strand
T1 sequence 1: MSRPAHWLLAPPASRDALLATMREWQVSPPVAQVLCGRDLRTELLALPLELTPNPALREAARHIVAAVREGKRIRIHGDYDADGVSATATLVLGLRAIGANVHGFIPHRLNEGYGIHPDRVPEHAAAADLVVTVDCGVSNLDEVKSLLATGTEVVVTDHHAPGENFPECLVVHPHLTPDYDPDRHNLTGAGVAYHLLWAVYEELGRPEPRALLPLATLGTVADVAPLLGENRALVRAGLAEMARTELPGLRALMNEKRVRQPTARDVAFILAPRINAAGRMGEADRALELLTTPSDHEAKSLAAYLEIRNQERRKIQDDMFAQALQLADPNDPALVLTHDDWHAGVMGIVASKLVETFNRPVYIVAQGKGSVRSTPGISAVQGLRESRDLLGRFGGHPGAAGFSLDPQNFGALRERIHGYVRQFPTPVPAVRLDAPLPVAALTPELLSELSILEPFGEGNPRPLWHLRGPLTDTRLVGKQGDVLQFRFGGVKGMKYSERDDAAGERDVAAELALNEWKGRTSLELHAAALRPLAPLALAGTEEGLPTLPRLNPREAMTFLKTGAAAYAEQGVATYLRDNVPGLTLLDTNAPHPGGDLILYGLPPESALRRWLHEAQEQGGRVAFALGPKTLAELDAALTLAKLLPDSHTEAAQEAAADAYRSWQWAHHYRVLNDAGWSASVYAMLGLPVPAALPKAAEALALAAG
T1 sequence 2: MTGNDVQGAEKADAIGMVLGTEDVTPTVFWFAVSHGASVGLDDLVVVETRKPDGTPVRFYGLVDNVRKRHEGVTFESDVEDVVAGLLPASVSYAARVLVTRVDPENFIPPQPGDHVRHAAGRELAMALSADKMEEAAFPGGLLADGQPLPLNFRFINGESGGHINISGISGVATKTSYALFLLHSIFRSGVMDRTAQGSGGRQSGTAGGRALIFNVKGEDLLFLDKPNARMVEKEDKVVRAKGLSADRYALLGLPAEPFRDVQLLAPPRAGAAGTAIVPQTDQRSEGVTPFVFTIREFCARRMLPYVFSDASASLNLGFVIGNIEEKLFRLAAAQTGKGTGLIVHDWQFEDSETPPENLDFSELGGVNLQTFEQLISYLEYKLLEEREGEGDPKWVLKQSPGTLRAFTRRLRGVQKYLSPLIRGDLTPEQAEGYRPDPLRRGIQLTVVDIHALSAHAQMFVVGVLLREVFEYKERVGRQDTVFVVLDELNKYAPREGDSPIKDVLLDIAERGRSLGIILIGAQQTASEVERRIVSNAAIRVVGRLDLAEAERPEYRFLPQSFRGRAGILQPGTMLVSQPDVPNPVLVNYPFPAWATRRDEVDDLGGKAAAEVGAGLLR

DrRecJ;DrHerAΔN = target: T2, DrRecJ;DrHerAΔN (Deinococcus radiodurans;Deinococcus …, UniProt D0EM60;Q9RW32 1-705;136-618, |); experiment: EMSA; with 4 uM DrNurA (dimer, P6), 800 nM HerAΔN hexamer; stimulation not decreased; EMSA: 100 nM DNA, 80 mM NaCl, 20 mM Tris-HCl pH 7.5, 1 mM DTT, 30 C, 10 min, 5% TBE native PAGE; conditions: protein: recombinant;recombinant; tags: HMT (His6-MBP) tag removed by TEV;N-terminal His6; copies: 1;6; label: 5' FAM; single strand
T2 sequence 1: T1 sequence 1
T2 sequence 2: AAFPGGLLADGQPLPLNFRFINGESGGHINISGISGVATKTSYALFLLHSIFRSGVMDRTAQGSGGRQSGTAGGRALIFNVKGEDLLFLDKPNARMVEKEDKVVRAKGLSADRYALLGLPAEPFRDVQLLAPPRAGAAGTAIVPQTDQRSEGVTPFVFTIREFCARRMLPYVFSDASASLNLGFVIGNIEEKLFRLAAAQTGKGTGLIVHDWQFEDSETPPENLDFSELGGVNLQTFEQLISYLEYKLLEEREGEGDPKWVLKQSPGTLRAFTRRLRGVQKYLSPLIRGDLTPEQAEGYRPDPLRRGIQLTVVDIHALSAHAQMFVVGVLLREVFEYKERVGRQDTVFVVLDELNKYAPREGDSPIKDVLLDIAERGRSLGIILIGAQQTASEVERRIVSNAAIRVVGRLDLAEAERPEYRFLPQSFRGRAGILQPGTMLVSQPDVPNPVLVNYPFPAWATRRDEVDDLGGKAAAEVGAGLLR

## AAAAAAAAAA (ssDNA) [O1 (10 nt ssDNA)]
DrRecJ;DrHerA
  binding result: binds
DrRecJ;DrHerAΔN
  binding result: binds
